Results: the supplement of paper PMC7877785
± gives the uncertainty stated by the source.

Assay: self-splicing fitness, log relative to wild type (ln ratio); higher = more splicing; Tetrahymena group I intron in knt gene, E. coli kanamycin selection, DiMSum; sequences stand for … in CUCUCU…GGAGGGAAAAGUUAUCAGGCAUGCACCUGGUAGCUAGUCUUUAAACCAAUAGAUUGCAUCGGUUUAAAAGGCAAGACCGUCAAAUUGCGGGAAAGGGGUCAACAGCCGUUCAGUACCAAGUCUCAGGGGAAACUUUGAGAUGGCCUUGCAAAGGGUAUGGUAAUAAGCUGACGGACAUGGUCCUAACCACGCAGCCAAGUCCUAAGUCAACAGAUCUUCUGUUGAUAUGGAUGCAGUUCACAGACUAAAUGUCGGUCGGGGAAGAUGUAUUCUUCUCAUAAGAUAUAGUCGGACCUCUCCUUAAUGGGAGCUAGCGGAUGAAGUGAUGCAACACUGGAGCCGCUGGGAACUAAUUUGUAUGCGAAAGUAUAUUGAUUAGUUUUGGAGUACUCGUGGUCG
Procedure, shortened: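 Six replicate transformations of E. coli BL21(DE3) with a pET-22b(+) library were grown overnight at 37°C or 30°C. The library randomised all eight P1ex-region intron nucleotides, the intron lying in the knt kanamycin-resistance gene, and plates were LB agar with or without 25 μg/mL kanamycin plus 100 μg/mL carbenicillin, 50 μM IPTG and 0.2% rhamnose. Pooled colonies were amplicon-sequenced on an Illumina HiSeq 2500, and fitness is the DiMSum error-weighted combination of wild-type-normalised replicate fold changes, kanamycin versus none.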

Sequence	self-splicing fitness (ln) (30 °C)	self-splicing fitness (ln) (37 °C)
CCAAAGCAAUAUUACGCUAG	-3.78 ± 0.2	-2.4 ± 0.16
CCAAAGCAAUAUUACGCUCC	-1.01 ± 0.2	-1.74 ± 0.36
CCAAAGCAAUAUUACGGAAA	-1.03 ± 0.26	-3 ± 0.38
CCAAAGCAAUAUUACGGAAC		-2.53 ± 0.36
CCAAAGCAAUAUUACGGAAG	-2 ± 0.056	-1.11 ± 0.074
CCAAAGCAAUAUUACGGCAC	-4.07 ± 0.24	-2.89 ± 0.21
CCAAAGCAAUAUUACGGCCC	-3.57 ± 0.43	
CCAAAGCAAUAUUACGGCUG	-0.987 ± 0.069	-0.917 ± 0.088
CCAAAGCAAUAUUACGUAGG	-3.85 ± 0.18	-1.66 ± 0.12
CCAAAGCAAUAUUACGUAGU	-3.67 ± 0.15	-3.14 ± 0.14
CCAAAGCAAUAUUACGUAUU	-4.14 ± 0.13	-2.71 ± 0.12
CCAAAGCAAUAUUACGUCUU	-4.12 ± 0.21	-2.43 ± 0.14
CCAAAGCAAUAUUACGUGAU	-3.5 ± 0.21	-3.14 ± 0.24
CCAAAGCAAUAUUACGUGGG	-2.85 ± 0.12	-2.9 ± 0.17
CCACAGCAAUAUUACGAGGA	-3.8 ± 0.18	-1.32 ± 0.12
CCACAGCAAUAUUACGAGGU	-4.41 ± 0.2	-2.81 ± 0.16
CCACAGCAAUAUUACGAUCA	-2.69 ± 0.33	-1.98 ± 0.28
CCACAGCAAUAUUACGAUCU	-3.57 ± 0.16	-2.43 ± 0.16
CCACAGCAAUAUUACGCAAA	-2.03 ± 0.22	-3.24 ± 0.32
CCACAGCAAUAUUACGCACC	-2.62 ± 0.28	-1.71 ± 0.28
CCACAGCAAUAUUACGCCCG	-0.882 ± 0.078	-0.0155 ± 0.09
CCACAGCAAUAUUACGCCCU	-2.75 ± 0.25	-2.08 ± 0.23
CCACAGCAAUAUUACGCCUU	-3.21 ± 0.17	-1.59 ± 0.14
CCACAGCAAUAUUACGCGAA	-3.53 ± 0.2	-3.29 ± 0.21

Sequence	self-splicing fitness (ln) (30 °C)	self-splicing fitness (ln) (37 °C)
CCACAGCAAUAUUACGCGCA	-3.95 ± 0.3	-3.06 ± 0.24
CCACAGCAAUAUUACGCUCG	-1.34 ± 0.077	-0.135 ± 0.088
CCACAGCAAUAUUACGCUGG	-4.04 ± 0.22	-2.58 ± 0.2
CCACAGCAAUAUUACGGUAU	-3.97 ± 0.19	-2.6 ± 0.16
CCACAGCAAUAUUACGGUCA	-3.27 ± 0.21	-3.22 ± 0.34
CCACAGCAAUAUUACGGUUC	-3.39 ± 0.18	-2.27 ± 0.19
CCACAGCAAUAUUACGGUUU	-4.31 ± 0.19	-2.8 ± 0.16
CCACAGCAAUAUUACGUAAU	-3.17 ± 0.13	-2.41 ± 0.2
CCACAGCAAUAUUACGUACA	-2.84 ± 0.19	-2.96 ± 0.34
CCACAGCAAUAUUACGUAUG	-0.654 ± 0.047	-0.391 ± 0.065
CCACAGCAAUAUUACGUCCG	-0.456 ± 0.053	0.344 ± 0.068
CCACAGCAAUAUUACGUCGU	-4.38 ± 0.17	-3.14 ± 0.17
CCACAGCAAUAUUACGUGUC	-3.11 ± 0.15	-2.68 ± 0.16
CCACAGCAAUAUUACGUUAA	-3.12 ± 0.14	-2.48 ± 0.14
CCACAGCAAUAUUACGUUGA	-3.67 ± 0.17	-3.31 ± 0.18
CCAGAGCAAUAUUACGAAGC	-3.1 ± 0.24	-2.71 ± 0.27
CCAGAGCAAUAUUACGAAUA	-2.84 ± 0.23	-3.27 ± 0.42
CCAGAGCAAUAUUACGAAUG	-1.73 ± 0.097	-0.868 ± 0.12
CCAGAGCAAUAUUACGAGAC	-4.31 ± 0.46	-2.66 ± 0.3
CCAGAGCAAUAUUACGAGGU	-3.71 ± 0.24	-2.77 ± 0.29
CCAGAGCAAUAUUACGAUCC		-1.91 ± 0.38
CCAGAGCAAUAUUACGAUUA	-3.29 ± 0.3	
CCAGAGCAAUAUUACGCCGA	-2.35 ± 0.28	-2.65 ± 0.44
CCAGAGCAAUAUUACGCCUU	-3.57 ± 0.25	-2.37 ± 0.25
